The DeepSol protein solubility set

Test: soluble on expression in E. coli; label from the status in PepcDB or PDB records

| Sequence | soluble on expression in E. coli |
| --- | --- |
| MSFMPAIVGPIAINSISGGVVNFGDSFYLSPKSSSKSALGSGAGNTGDFLLLNNAVNATNYIDPDVNDQDMVGNGLEHHHHHH | not soluble |
| MGSWSEKAFSASKLDDAIAAKFGSLPIQESTAIQIKAPEIAENGAFVPVTVATSIPGATNISIFTPANFSPMVASFDVLPRMKPEVSLRMRMAKTENLVVVVQAGGKLYRAVREVKVTIGGCGG | soluble |
| YIRKRVPLLCLGKRWFVFDKSLMKKTISYGSTSAMQQVCLQIGKTIIQAVVNTQGVSVMAAFTAVNRVDDFAYIPQQNIGHAMTTFIAQNKGAGKRERIRRGLQ | not soluble |
| KYRHEYYQKPEEVVVTVFAKGIPKQNVNIDFGEQILSVVIEVPGEDAYYLQPRLFGKIIPDKCKYEVLSTKIEICLAKADIITWASLEHG | soluble |
| MGSDKIHHHHHHMRSHGGDVYKVSPNYDRITDMSSNVNPFLDLGKYSLYPEISYTDIEEKLRVYTKSTNMGIVIGPGLTHLIYKYFEFYQVKKPIIAMPNFSEYKGIAEDRHLRFSAIPSYIIEKDPLILKNFDHDALFITSPSNPFGELFPESTLETVFEIEEKRGRRVFLDGAFMDFVPNYAESIVQSSRSYFNVTIGRSLTKILAIPSLRAGYLIMERHEADLFRKAMEPWSICQPAIDFIRSIDINEVAKNSVALVNGEREYLISELKARGIKVIGNPSANYIVISMPRTDEFYNFMLSKGILVRLLDDYDYVGRCLVRLAIKTRSQNNAFLNALDNFMSSSE | not soluble |
| MFVPLAMLAGMFSYYETFHETEALQDDLLRQAALYVAPDSKPETLPEGDGDTRIFVQMPQQEDPVVSLPAHLADGLHTLQADGDDDYYRVYIRTTEQGRIAVMQENEYREDLAADAARQSVLPLLAALPLMILLTVWITHKAMRPVRKLSQSLEQRRINDLSALSVDNIPSEIRGFVTAINLLLKRADEDIRHRQRFVADAAHELRTPMTALSLQAERLNNMSLPPDAARQPAVLQQSIRRNKHLLEQLLALARSQSDETPLTKTTFGLQSRFRQVLQELMPLALEKRQDIGVAVGGDVEVSADETEIYTLIKTFADNAVRYTPPEGRIDLGFTDEGKYLAVWVEDNGNGIPESERARVLDPFYRILGTEQQGTGLGLSIADTLAKKYGGHLELTDSRRFGHGLLIRALLDKETLK | not soluble |
| MSLAETFWVDVQRAEGRPLNLELIAPLSVGSKSVEEVENVAIRVELTNGCVGWGEVPVFPSVTAVNHTVALAKAMEACEFLSCSSPMVLSLVLSEIGGILPGPELASVRAGVEMALIDAVANSIDVPLWRLFGGVANTLTTGVTLPTVFPAEAYSQGASKYCQSGFRTFKLKIGKNTSAEIKALQAIQAAHPLCSLILDANEAYTCQEAIEILQKLYDSGITPAVLEQPVHRSDWKGLGEVSNFAREKKYGISVAVDETCQSLIEVRRVIKENLADAINIKLAKFGVMGALEIIELARESGVKLMISGTVESRLATGFAAHLAAGLGCFKSVVLDMPFLLSEDPVICGYEASGPVYKFLNVRGQGGFLKWDFSSWEGHHHHHH | soluble |
| MSLYGGIPTNLVSGMSSAGAICTTQIRDAREREKREIGLLNDRLADYIEKVRFLKAQNHVLSHDIEILRRGFSGGGHISSFFESEISNCTVISERILSSRTKFQADITGLEGEIEIYRKKWLEALKVVRSHREDHHVNLDKLAEVEAQIALFNRKIRIVEEDVLRIRRETGGIQNDIGRIHSQIHAEIALKNERHHSVQMLLQRVQVIQTENSSRIEQELIYIHRDTTLENRDYFRQELQAAMRDIRANYEAMSIRSREDIEIAYRKRIDEIRVIPAHVHIEDYREELLSIRTTLSTTHSRLAEIESRNAWLLTTITDLKHQQAEEARIFEATLDAKQATYEQFKERCTELSIQMEKLCDHETSLQAELERYRVLLNGANVTTYVSNSTGAAGYRSSTHVATTTTTTTNGYSSGYTAGGYTSGGYTTGGYTRGITAGGAVGGISTGGYIGRSSSSHGISVGGNIGGVSVGGHINGYHASGDISAAGRHHESSYSYSSSNN | not soluble |
| MEFTDPYTVDSLQCFNGFHYRGYRINQSDTDKVNRLIAIIRQEREKNIGPAAGDIIEYTCRNGDWFQSAHIEEICDGHFKICLSGSIPFCYESGDGVGYNVHEGIWTYPKRAALKPAGIREKQFRTWGHAGKCANGEVYFMACVRAWQYTEPEPLYGRYTTRNWSKYHINRQPDPEHDGEFFYMTEGFTLYSREELDRLTGILHGKLFDGIYSNSLVLWGYHMKWEILTEQEWNETKAEIHISFLGKSPVKIITCDDTHTITVYKKK | not soluble |
| MSEPLDLNQLAQKIKQWGLELGFQQVGITDTDLSESEPKLQAWLDKQYHGEMDWMARHGMLRARPHELLPGTLRVISVRMNYLPANAAFASTLKNPKLGYVSRYALGRDYHKLLRNRLKKLGEMIQQHCVSLNFRPFVDSAPILERPLAEKAGLGWTGKHSLILNREAGSFFFLGELLVDIPLPVDQPVEEGCGKCVACMTICPTGAIVEPYTVDARRCISYLTIELEGALPEELRPLMGNRIYGCDDCQLICPWNRYSQLTTEDDFSPRKPLHAPELIELFAWSEEKFLKVTEGSAIRRIGHLRWLRNIAVALGNAPWDETILTALESRKGEHPLLDEHIAWAIAQQIERRNACIVEVQLPKKQRLVRVIEKGLPRDA | not soluble |
| MGSDKIHHHHHHMKSVCLKITSLISLASRITTGLSLMSVMLASPLAVAQMGKHDALLLHAARVFDGHRMRTNTSVQVVNGKVTQIGPRGSFAPDNAKVIDLGDATILPGFIELHAHLSFQHVPADTVLKHGITTIRDVGGPVHKPYGGNGTLRMLTSGPIITAPGGYPIPLTGEKNIATPVSTEKEARETVRNLIDAGAVVIKIALEPGGEPGAPWSCGHAHVHHHNHAAAGNHAHHAQPNHEPPNHEAANDAHSSHPHPNTGLGTAWPLLAERVVKAIVDEAHVNKRRVTAHIAEVKGAEIAINAGIDEWAHVPCDIIPEPLLKKAVSQGVRIVTTLDTLSKCPGVAHNTRVWREQGGELLYGAEIAHPDVPRGIDAQELMYMMQMGNMETLEVLRAATSKAGEHLGLPLLGTLLPGAPADVIAIKGDPTHNLKNLEYPDLVISGGEIVLNNFPAAF | not soluble |
| SLVSSSKITRAREMVTKTEEKQLNQLEIQVDNGGGGTWEYLCLVRNLKVRRSEKVLKHGSSILNDQKKRSALGPDEWTLNEQVAIAAMDCQCLGVAQSCIKALQTKFPGSKRVGRLEALLLEAKGLWGEAEEAYASLLEDNPLDQAIHKRRVAISKALGKPSIAIELLNKYLELFMADHDAWRELAELYLSLQMYKQAAFCYEELILSQPTVPLYHLAYAEVLYTIGGVENIISARKYYAATVDLTGGKNTRALLGICLCASAIAQLSKGRNKEDKDATAAPELHSLAAAAVEKEYKQKAPDKLQLISSALRILKT | soluble |
| MVAPGKKFTLRHIFKNVTKWKTGEIFYSPDEEHFNVPWQMCIHRENGNMCVILCCLKVEEDRVPWKINFEYQLKIVNISGMSIVKAGNKICTEKRRFVRRQFISRNTLKSGYLVDDIITVEATVKITKVSKKQLRSFDKSNKKFSDVILAIEDEKFYVLKKFLASHSTYFKTLLLGKFEEAERQEVKLQDIDSTDFQNLMEVLYGESAIDDGTIKGILELADMYDMPFPIRKCEEFLIDSSEKSIKEKLKIAKQYKMENLKNSCLSKVNTVRDIKAAMTGDPTEMDLSVLAALLGKSLALH | not soluble |
| MGSDKIHHHHHHMIDLDFRKLTIEECLKLSEEEREKLPQLSLETIKRLDPHVKAFISVRENVSVEKKGKFWGIPVAIKDNILTLGMRTTCASRILENYESVFDATVVKKMKEAGFVVVGKANLDEFAMGSSTERSAFFPTRNPWDLERVPGGSSGGSAAAVSAGMVVAALGSDTGGSVRQPASLCGVVGYKPTYGLVSRYGLVAFASSLDQIGPITKTVRDAAILMEIISGRDENDATTVNRKVDFLSEIEEGVSGMKFAVPEEIYEHDIEEGVSERFEEALKLLERLGAKVERVKIPHIKYSVATYYVIAPAEASSNLARFDGVKYGLRIKEKGLREMYMKTRNVGFGEEVRRRIMIGTFTLSAAYYEAYFNKAMKVRRKISDELNEVLSQYDAILTPTSPVTAFKIGEIKDPLTYYLMDIFTIPANLAGLPAISVPFGFSNNLPVGVQVIGRRFADGKVFRIARAIEKNSPYNENGMFPLPEVKA | not soluble |
| MAHHHHHHMKNKNKYDYLLKLLLVGDSSVGKSSILCRYSDNQFEEKVLSTIGIDFKVKYLKIDNKTIKVGIWDTAGQERFRTLTSAYYRNAHAIILVYDCTVRESFENLDVWINEIDKYSTNKNAIKMLVANKIDKPNHEVTKDEGKNFAFENNMLFCETSAKNDINITYCFEELIQQILNNPSLLELSIVTKNLKLGKKEESRSNCAC | soluble |
| MEEVIWEQYTVTLQKDSKRGFGIAVSGGRDNPHFENGETSIVISDVLPGGPADGLLQENDRVVMVNGTPMEDVLHSFAVQQLRKSGKIAAIVVKRPRKVQVAPLQGSPPLSHDDRGFEVIEEFDGRSFRSGYSERSRHSSHDMLSHSWEGNRERGRPHQRTQSRERERSRGRSLERGLDQEDYGRSRERSRGRSLERGLDRDFVSRDHSRGRSIDRDYDRDYERSYHEAYEPDYGGGYSPSYDRRAHPETRYERSRSREHLRSRSPSPESRSRHEHKGQHDPDRPIGVLLTKSKANEEYGLRLGSQIFIKEMTRTGLATKDGNLHEGDIILKINGTVTENMSLTDARKLIEKSRGKLQLVVLRDSKQTLINIPALNDSDSEVEDISEIESNRSFSPEERRQQYSDQDYHSSTEKLKERPSSREETSGRLSRMGATPTPFKSTGDITAAGVTEASREPRYQEEGPVPQPRTAPRVFLRPSPEDEAIYGPNTKMVRFKKGDSVGLRLAGGNDVGIFVAGIQEGTSAEQEGLQEGDQILKVNTQGFRGLVREDAVLYLLEIPKGETVTILAQSRADVYRDILACGRGDSFFIRSHFECEKETPQSLAFTRGEVFRVVDTLYDGKLGHWLAVRIGNELEKGLIPNKSRAEQMASVQNAQRENAGDRADFWRMRGQRSSGGVKKNLRKSREDLAAAVSVSTKFPAYEKVLLREAGFKRPVVLFGPIADIAMERSTELPDLFQTAKTEPKDAGSEKSSGVVRLNTVRQIIEQDKHALLDVTPKAVDLLNYTQWFPIVIFFNPDSRQGVKTIRQRLSPTSNKSSRKLFDQANKLKKTCSHLFTATINVNSANDGWFGSLKDSIQQQQNEAVWVSEGKMEGMDDDAEDRMSYLTAMGADYLSCDSRLISDFEDTDGEGGAYTDNELEEPAEEPLVSSITRSSEPVQHEENIRKSSPEPRAQMRRAASRDQLRELARPQPSSQSRPKARSQNREDSFDYSKSNLPATAGSEIPGGSTKGYPPPIAAKPAFGRPILKPSTPVPMPESEEVGESTEEQEDAPRSVLGRVKIFEKMDHKAKLQRMQELQEAQNARIEIAQKHPDIYAVPIKAPKPDAGLPPHMSSGPPEPQKAPSRLYQDTRGSYGSDPEEEEYRQQLAAHSKRGYYSQPSRYRDTEL | soluble |
| MKTVICGVQNMTTIRRLSAEDLLHFNSVNLDQLTETFNLGFYFNYLARWPDYQYVVTDSQSTTVAYIIGKAEGAGDLFHGHVSAVTVAPWFRRMGLASLLMEILENVSEKVYQGYFVDLFVRVSNHRAIEMYKKLGYIVYRRIIGYYSGEEDAFDMRKSLSKDPERKAMIPLDRPVYPSEVLLTD | soluble |
| EKKYIVGFKQTMSAMSSAKKKDVISQKGGKVEKQFKYVNAAAATLDEKAVKELKKDPSVAYVEEDHIAHEY | soluble |
| MKNYIAIHPGEILREEYLKEYALSAYALAKALNVPRTRIERIVAENSRITPDTALRLASFFDTTAEFWLNMQAAYDVSVLQAEKADEFSKISKFECRV | not soluble |
